Experimental data taken from patent US20240327497A1.
Numbering of substitutions follows the chain as printed. In names and notes the source's numbering stands. Several values for one entry are separate records, joined by “and”; a condition that tells them apart may be missing. Identical values can stand only once.

B1: canine IgGB Fc (CH2-CH3) N434W with N-terminal SASA tag (Fc fusion, part only; not given: SASA tag, not shown: another chain or arm of the molecule; small tags and cut ends)
Fc: APEMLGGPSVFIFPPKPKDTLLIARTPEVTCVVVDLDPEDPEVQISWFVDGKQMQTAKTQPREEQFNGTYRVVSVLPIGHQDWLKGKQFTCKVNNKALPSPIERTISKARGQAHQPSVYVLPPSREELSKNTVSLTCLIKDFFPPDIDVEWQSNGQQEPESKYRTTPPQLDEDGSYFLYSKLSVDKSRWQRGDTFICAVMHEALHWHYTQESLSHSPGK
B2: canine IgGB Fc (CH2-CH3) N434S with N-terminal SASA tag (Fc fusion, part only; not given: SASA tag, not shown: another chain or arm of the molecule; small tags and cut ends)
Fc: B1 Fc with W206S
B3: canine IgGB Fc (CH2-CH3) N434R with N-terminal SASA tag (Fc fusion, part only; not given: SASA tag, not shown: another chain or arm of the molecule; small tags and cut ends)
Fc: B1 Fc with W206R
B4: canine IgGB Fc (CH2-CH3) N434Y with N-terminal SASA tag (Fc fusion, part only; not given: SASA tag, not shown: another chain or arm of the molecule; small tags and cut ends)
Fc: B1 Fc with W206Y
B5: canine IgGB Fc (CH2-CH3) A254T with N-terminal SASA tag (Fc fusion, part only; not given: SASA tag, not shown: another chain or arm of the molecule; small tags and cut ends)
Fc: B1 Fc with A24T, W206N
B6: canine IgGB Fc (CH2-CH3) D378V with N-terminal SASA tag (Fc fusion, part only; not given: SASA tag, not shown: another chain or arm of the molecule; small tags and cut ends)
Fc: B1 Fc with D148V, W206N
B7: canine IgGB Fc (CH2-CH3) Q311V with N-terminal SASA tag (Fc fusion, part only; not given: SASA tag, not shown: another chain or arm of the molecule; small tags and cut ends)
Fc: B1 Fc with Q81V, W206N
B8: canine IgGB Fc (CH2-CH3) Y436H with N-terminal SASA tag (Fc fusion, part only; not given: SASA tag, not shown: another chain or arm of the molecule; small tags and cut ends)
Fc: B1 Fc with W206N, Y208H
B9: canine IgGB Fc (CH2-CH3) T286F with N-terminal SASA tag (Fc fusion, part only; not given: SASA tag, not shown: another chain or arm of the molecule; small tags and cut ends)
Fc: B1 Fc with T56F, W206N
B10: canine IgGB Fc (CH2-CH3) T286Y with N-terminal SASA tag (Fc fusion, part only; not given: SASA tag, not shown: another chain or arm of the molecule; small tags and cut ends)
Fc: B1 Fc with T56Y, W206N
B11: canine IgGB Fc (CH2-CH3) YTE variant (L252Y/A254T/T256E) with N-terminal SASA tag (Fc fusion, part only; not given: SASA tag, not shown: another chain or arm of the molecule; small tags and cut ends)
Fc: B1 Fc with L22Y, A24T, T26E, W206N
B12: canine IgGB Fc (CH2-CH3) T286W with N-terminal SASA tag (Fc fusion, part only; not given: SASA tag, not shown: another chain or arm of the molecule; small tags and cut ends)
Fc: B1 Fc with T56W, W206N
B13: canine IgGB Fc (CH2-CH3) T286L with N-terminal SASA tag (Fc fusion, part only; not given: SASA tag, not shown: another chain or arm of the molecule; small tags and cut ends)
Fc: B1 Fc with T56L, W206N

molecular target: canine FcRn (FcRn large subunit with canine beta-2-microglobulin) (canine); assay: SPR pH 5.5, SASA-Fc captured on BSA, FcRn 200 nM

| Kd | koff | kon | Binder |
| --- | --- | --- | --- |
| 40.4 nM and 75.7 nM | – | – | B1 |
| 924 nM and 1050 nM | 0.207 s⁻¹ and 0.209 s⁻¹ | 225000 M⁻¹ s⁻¹ and 199000 M⁻¹ s⁻¹ | B2 |
| 107 nM and 159 nM | 0.0524 s⁻¹ and 0.0633 s⁻¹ | 488000 M⁻¹ s⁻¹ and 399000 M⁻¹ s⁻¹ | B3 |
| 15.9 nM | 0.00968 s⁻¹ | 607000 M⁻¹ s⁻¹ | B4 |

molecular target: canine FcRn (FcRn large subunit with canine beta-2-microglobulin) (canine); assay: SPR pH 5.5, SASA-Fc captured on BSA, FcRn 200 nM; remark: another data set of the same source

| Kd | koff | kon | Binder |
| --- | --- | --- | --- |
| 2290 nM and 1340 nM | 0.375 s⁻¹ and 0.433 s⁻¹ | 163000 M⁻¹ s⁻¹ and 323000 M⁻¹ s⁻¹ | B5 |

molecular target: canine FcRn (FcRn large subunit with canine beta-2-microglobulin) (canine); assay: SPR pH 5.5, SASA-Fc captured on BSA, FcRn 200 nM; remark: another data set of the same source

| Kd | koff | kon | Binder |
| --- | --- | --- | --- |
| 693 nM and 873 nM | 0.159 s⁻¹ and 0.16 s⁻¹ | 229000 M⁻¹ s⁻¹ and 184000 M⁻¹ s⁻¹ | B6 |

molecular target: canine FcRn (FcRn large subunit with canine beta-2-microglobulin) (canine); assay: SPR pH 5.5, SASA-Fc captured on BSA, FcRn 200 nM; remark: another data set of the same source

| Kd | koff | kon | Binder |
| --- | --- | --- | --- |
| 372 nM and 439 nM | 0.566 s⁻¹ and 0.696 s⁻¹ | 1.52e+06 M⁻¹ s⁻¹ and 1.59e+06 M⁻¹ s⁻¹ | B7 |

molecular target: canine FcRn (FcRn large subunit with canine beta-2-microglobulin) (canine); assay: SPR pH 6.0, SASA-Fc captured on BSA, FcRn 100-800 nM

| Kd [nM] | koff [s⁻¹] | kon [M⁻¹ s⁻¹] | Binder |
| --- | --- | --- | --- |
| 386 | 0.145 | 375000 | B8 |
| 616 | 0.19 | 309000 | B9 |
| 632 | 0.162 | 256000 | B10 |
| 210 | 0.0659 | 314000 | B11 |
| 565 | 0.195 | 345000 | B12 |
| 777 | 0.253 | 325000 | B13 |

molecular target: canine FcRn (FcRn large subunit with canine beta-2-microglobulin) (canine); assay: SPR pH 6.0, SASA-Fc captured on BSA, FcRn 200 nM

| Kd | koff | kon | Binder |
| --- | --- | --- | --- |
| 447 nM and 532 nM | 0.134 s⁻¹ and 0.141 s⁻¹ | 300000 M⁻¹ s⁻¹ and 265000 M⁻¹ s⁻¹ | B8 |
| 157 nM and 185 nM | 0.0527 s⁻¹ and 0.061 s⁻¹ | 336000 M⁻¹ s⁻¹ and 330000 M⁻¹ s⁻¹ | B9 |
| 69.8 nM and 116 nM | – | 410000 M⁻¹ s⁻¹ and 1.11e+06 M⁻¹ s⁻¹ | B10 |
| 127 nM and 118 nM | 0.0982 s⁻¹ and 0.112 s⁻¹ | 774000 M⁻¹ s⁻¹ and 945000 M⁻¹ s⁻¹ | B12 |
| 174 nM and 208 nM | 0.0565 s⁻¹ and 0.103 s⁻¹ | 324000 M⁻¹ s⁻¹ and 496000 M⁻¹ s⁻¹ | B13 |

molecular target: canine FcRn (FcRn large subunit with canine beta-2-microglobulin) (canine); assay: SPR pH 5.5, SASA-Fc captured on BSA, FcRn 100-800 nM

| Kd [nM] | koff [s⁻¹] | kon [M⁻¹ s⁻¹] | Binder |
| --- | --- | --- | --- |
| 101 | 0.045 | 446000 | B1 |
| 184 | 0.046 | 250000 | B11 |
| 182 | 0.0801 | 440000 | B3 |
| 29.1 | 0.0151 | 520000 | B4 |
